# Test results taken from patent publication US20040005691.
# Several values for one entry are separate records, joined by “and”; a condition that tells them apart may be missing. Equal values may be shown once.
# T1: substrate S-1 (SEISY-EVEFRWKK)
# T1 chain: SEISYEVEFRWKK
# B1: BACE construct Asp2-2L-TM-His6 expressed in CHO cells (protein)
# chain: TQHGIRLPLRSGLGGAPLGLRLPRETDEEPEEPGRRGSFVEMVDNLRGKSGQGYYVEMTVGSPPQTLNILVDTGSSNFAVGAAPHPFLHRYYQRQLSSTYRDLRKGVYVPYTQGKWEGELGTDLVSIPHGPNVTVRANIAAITESDKFFINGSNWEGILGLAYAEIARPDDSLEPFFDSLVKQTHVPNLFSLQLCGAGFPLNQSEVLASVGGSMIIGGIDHSLYTGSLWYTPIRREWYYEVIIVRVEINGQDLKMDCKEYNYDKSIVDSGTTNLRLPKKVFEAAVKSIKAASSTEKFPDGFWLGEQLVCWQAGTTPWNIFPVISLYLMGEVTNQSFRITILPQQYLRPVEDVATSQDDCYKFAISQSSTGTVMGAVIMEGFYVVFDRARKRIGFAVSACHVHDEFRTAAVEGPFVTLDMEDCGYNIPQTDESHHHHHH
# B2: P33K-BACE expressed in E. coli from the pET11a-P33K-BACE construct (protein)
# chain: MASMTGGQQMGRGSMAGVLPAHGTQHGIRLPLRSGLGGAPLGLRLPRETDEEPEEKGRRGSFVEMVDNLRGKSGQGYYVEMTVGSPPQTLNILVDTGSSNFAVGAAPHPFLHRYYQRQLSSTYRDLRKGVYVPYTQGKWEGELGTDLVSIPHGPNVTVRANIAAITESDKFFINGSNWEGILGLAYAEIARPDDSLEPFFDSLVKQTHVPNLFSLQLCGAGFPLNQSEVLASVGGSMIIGGIDHSLYTGSLWYTPIRREWYYEVIIVRVEINGQDLKMDCKEYNYDKSIVDSGTTNLRLPKKVFEAAVKSIKAASSTEKFPDGFWLGEQLVCWQAGTTPWNIFPVISLYLMGEVTNQSFRITILPQQYLRPVEDVATSQDDCYKFAISQSSTGTVMGAVIMEGFYVVFDRARKRIGFAVSACHVHDEFRTAAVEGPFVTLDMEDCGYNIPQTDES
# B3: human BACE expressed in E. coli from pET11a-BACE, without the P33K mutation (protein)
# chain: MASMTGGQQMGRGSMAGVLPAHGTQHGIRLPLRSGLGGAPLGLRLPRETDEEPEEPGRRGSFVEMVDNLRGKSGQGYYVEMTVGSPPQTLNILVDTGSSNFAVGAAPHPFLHRYYQRQLSSTYRDLRKGVYVPYTQGKWEGELGTDLVSIPHGPNVTVRANIAAITESDKFFINGSNWEGILGLAYAEIARPDDSLEPFFDSLVKQTHVPNLFSLQLCGAGFPLNQSEVLASVGGSMIIGGIDHSLYTGSLWYTPIRREWYYEVIIVRVEINGQDLKMDCKEYNYDKSIVDSGTTNLRLPKKVFEAAVKSIKAASSTEKFPDGFWLGEQLVCWQAGTTPWNIFPVISLYLMGEVTNQSFRITILPQQYLRPVEDVATSQDDCYKFAISQSSTGTVMGAVIMEGFYVVFDRARKRIGFAVSACHVHDEFRTAAVEGPFVTLDMEDCGYNIPQTDES
# Target: T1, substrate S-1 (SEISY-EVEFRWKK)
Protein,Activity Assays (Fluorescence Peak Area) (fluorescence peak area),enzyme activity compared with BACE
B1,83.3 and 85.2 and 78.1,
B2,38.4 and 26.5 and 32.8,the P33K-BACE has essentially the same activity of BACE
B3,31 and 45.8 and 31.9,
